Data published in paper PMC10288592, “A linker protein from a red-type pyrenoid phase separates with Rubisco via oligomerizing sticker motifs” (Proceedings of the National Academy of Sciences of the …, 2023).

Target: T1, PYCO1 (pyrenoid component 1), recombinant, residues 31 to 592 (Phaeodactylum tricornutum)
T1 chain: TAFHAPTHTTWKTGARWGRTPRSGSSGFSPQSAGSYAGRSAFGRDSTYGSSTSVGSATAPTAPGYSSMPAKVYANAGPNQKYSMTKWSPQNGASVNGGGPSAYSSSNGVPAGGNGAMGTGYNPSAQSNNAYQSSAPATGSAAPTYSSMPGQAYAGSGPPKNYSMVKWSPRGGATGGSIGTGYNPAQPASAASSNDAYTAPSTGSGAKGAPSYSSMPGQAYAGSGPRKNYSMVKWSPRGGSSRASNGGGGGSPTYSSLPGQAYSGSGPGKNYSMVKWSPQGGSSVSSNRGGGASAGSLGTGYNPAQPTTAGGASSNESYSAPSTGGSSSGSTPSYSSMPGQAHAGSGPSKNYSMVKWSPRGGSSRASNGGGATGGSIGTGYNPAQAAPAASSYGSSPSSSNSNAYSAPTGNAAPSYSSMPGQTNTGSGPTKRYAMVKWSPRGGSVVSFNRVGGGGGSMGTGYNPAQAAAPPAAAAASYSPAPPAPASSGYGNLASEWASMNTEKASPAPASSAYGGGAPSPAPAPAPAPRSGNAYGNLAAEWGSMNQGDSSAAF
Assay: co-sedimentation; heterotypic: Rubisco and PYCO1 (or variant) mixed at various ratios, 20 mM Tris-HCl pH 8.0, 150 mM NaCl; condensates sedimented and analysed
Details: both partners purified

B1: Phaeodactylum tricornutum Rubisco (L8S8 holoenzyme) (complex)
chain 1: MSQSVSERTRIKSDRYESGVIPYAKMGYWDAAYAVKNTDVLALFRITPQPGVDPVEAAAAVAGESSTATWTVVWTDLLTACDRYRAKAYRVDPVPNTTDQYFAFIAYECDLFEEGSLANLTASIIGNVFGFKAVSALRLEDMRIPHSYLKTFQGPATGVIVERERLNKYGIPLLGATVKPKLGLSGKNYGRVVYEGLKGGLDFLKDDENINSQPFMRWRERFLYCMEGINRASAATGETKGSYLNITAGTMEEVYKRAEYAKTVGSIVVMIDLVMGYTAIQSAAIWARDNDLILHLHRAGNSTYARQKNHGINFRVICKWMRMCGVDHIHAGTVVGKLEGDPLMIKGFYDTLLLTHLNVNLPYGIFFEMTWASLRKCMPVASGGIHCGQMHQLVHYLGDDVVLQFGGGTIGHPDGIQAGATANRVALEAMILARNEGADYFNSDIGPQILRNAAKTCGPLQTALDLWKDISFNYTSTDTSDFSVTPTANV
chain 2: MRLTQGCFSFLPDLTDQQIEKQIAYCITKGWAMNVEWTDDPHPRNSYWELWGLPLFDVKDPASVMFELREARKSCAAGYIRINAFNAAYGTESCVMSFIVNRPSNEPGFYLERQELEGRRIAYTTKSYSVQANPEGGRY
notes: Rubisco large subunit (LSU) of Phaeodactylum tricornutum, Form ID; Rubisco small subunit (SSU) of Phaeodactylum tricornutum, Form ID; For microscopy spiked with 0.3% or 0.6% atto-594-labeled PtRubisco; also called PtRubisco; diatom Rubisco; source: purified directly from diatoms (P. tricornutum); endogenous, soluble algal lysate (immunoprecipitation); copies: 8 + 8
B1 was tested. Which “stoichiometry N” value did it give?
Its value is 3 Rubisco (L8S8) per PYCO1.
